According to the nanobody polyreactivity screen of Harvey et al. (2022):

Assay: yeast display, Sf9 membrane polyspecificity reagent, FACS + sequencing; frameworks hold sequencing errors
Summary of the method: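 A nanobody's polyreactivity label depends on the gate it was sorted from. Yeast display cells were stained with 10% biotinylated, detergent-solubilized Sf9 membrane reagent for 1 hour at 4 °C, enriched on streptavidin microbeads and sorted by FACS. The low and high (top ~1%) gates were set on anti-HA fluorescence for expression and streptavidin fluorescence for reagent binding.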

Sequence | polyreactivity (PSR sort gate)
QVQLVESGGGLVQAGGSLRLSCAASGRTFRYYAMGWYRPAPGKERELVAAITSGGTSTYYADSVKGRFTISRDNAKNTVYLQMYSLKPEDTAVYYCAAGRRSYSFHNVVRGYDYWGQGTQVTVSS | high polyreactivity
QVQLVESGGGLVQAGGSLRLSCAASGRTFRYYAMGWYRQAPGKERELVAAIRANGGSTYYADSVKGRFTISRDNAKNIVYLQMNSLKPEDTAVYYCAALYRRYPYHYDSWGQGTQVTVSS | high polyreactivity
QVQLVESGGGLVQAGGSLRLSCAASGRTFRYYAMGWYRQAPGKERELVAAIRRGGSTTYADSVKVRFTISRDNAKNTVYLQMNSLKPEDTAVYYCAARYPGTRGDGYWGQGTQVTVSS | high polyreactivity
QVQLVESGGGLVQAGGSLRLSCAASGRTFRYYAMGWYRQAPGKERELVAAISRSGGSTYYAVSVKGRFTISRDNAKNTVYLQMNSLTPEVTAVYYCAARYYVPWFGPSKYTPYDYWGQGIQVTVSS | high polyreactivity
QVQLVESGGGLVQAGGSLRLSCAASGRTFRYYAMGWYRQAPGKERELVAAITRGGRTNYADSVKGRFTISRDNAKNTVYLQMNSLKPEDTAVYYCAAVLYTPNKYASYYWGQGTQVTVSS | high polyreactivity
QVQLVESGGGLVQAGGSLRLSCAASGRTFRYYDMGWYRQAPGKEREFVAAITWRGGSTYYADSVKGRFTISRDNAKNTVYLQMNSLKPEDTAVYYCATDSLRLYGGKRDLYYWGQGTQVTVSS | low polyreactivity
QVQLVESGGGLVQAGGSLRLSCAASGRTFRYYSMGWYRQAPGKERELVAAISSRGNTYYADSVKGRFTISRDNAKNTVYLQMNSLKPEDTAVYYCAARNVVTGYRYDYWGHGTQVTVSS | high polyreactivity
QVQLVESGGGLVQAGGSLRLSCAASGRTFRYYTMGSYRPAPGKEREFVAAISSTGGTYYADSVKGRFTISRDNAKNTVYLQMNSLKPEDTAVYYCAKVYFWGALSPDKYDEDYWGQGTQVTVSS | low polyreactivity
QVQLVESGGGLVQAGGSLRLSCAASGRTFRYYTMGWYRQAPGKEREFVAAISSTGGTYYADSVKGRFTISRDNAKNTVYLQMNSLKPEDTAVYYCAAETEDWNEYNYWGQGTQVTVSS | low polyreactivity
QVQLVESGGGLVQAGGSLRLSCAASGRTFRYYTMGWYRQAPGKEREFVAAISSTGGTYYADSVKGRFTISRDNAKNTVYLQMNSLKPEDTAVYYCNATTSSNEYDSWGQGTQVTVSS | low polyreactivity
QVQLVESGGGLVQAGGSLRLSCAASGRTFRYYTMGWYRQAPGKEREFVAALSSTGGTYYADSVKGRFTISRDNAKNTVYLQMNSLKPEDTADYYCNVSSLNSYTSGTTYWGVDYWGQGTQVTVSS | low polyreactivity
QVQLVESGGGLVQAGGSLRLSCAASGRTFRYYTMGWYRQAPGKERELVAAITRNGGRTYYADSVKGRFTISRDNAKNTVYLQMNSLKPEDTAVYYCAAGTYDGGYHYDYWGQGTQVTVSS | high polyreactivity
QVQLVESGGGLVQAGGSLRLSCAASGRTFRYYTMGWYRQAPGKERELVAVISRSGGNTYYADSVKGRFTISRDNAKNTVYLQMNSLKPEDTAVYYCAAKIALDNDYWGQGTQVTVSS | high polyreactivity
QVQLVESGGGLVQAGGSLRLSCAASGRTFSANAMGWYRQAPGKERELVAAISSGGSTTYADSVKGRFTISRDNAKNTVYLQMNSLKPEDTAVYYCAAVWLSLFKGWVDTHEYDYWGQGTQVTVSS | low polyreactivity
QVQLVESGGGLVQAGGSLRLSCAASGRTFSANAMGWYRQAPGTEREGVATMTVRGGSTNYADSVKGRFTISRDNAKNTVYLQMNSLKPEDTAVYYCNAYVNSNVRWAYWGFDYCGQGTQVTVSS | high polyreactivity
QVQLVESGGGLVQAGGSLRLSCAASGRTFSANTMGRYRQAPGKERELVAAITRGASTKYADSVKGRFTISRDNAKNTVYLPMNSLNPDDTAVYYCAAAVAYEYLQYAYTRYYYWGQGTQVTVSS | high polyreactivity
QVQLVESGGGLVQAGGSLRLSCAASGRTFSAYAMGWYRQAPGKERELVAAISTNVGSTYYADSVKGRFTISRDTAKNTVYLQMNSLKPEDTAVYYCAKSWTLSGWNYYYWGQGTQVTVSS | high polyreactivity
QVQLVESGGGLVQAGGSLRLSCAASGRTFSAYVMGWYRQAPGKEREFVATIRRTGSTYYADSVKGRFTISRDNAKNTVYLQMNSLKPEDTAVYYCNRGSFPSVQGSYPGYGYWGQGTQVTVSS | high polyreactivity
QVQLVESGGGLVQAGGSLRLSCAASGRTFSFYAMGWYRQAPGKERELVAAIRSDGGTTYYADSVKGRFTISRDNAKNTVYLQMNSLKPEDTAVYYCNTQSFYFVSYSSSRYLRYYWGQGTQVTVSS | low polyreactivity
QVQLVESGGGLVQAGGSLRLSCAASGRTFSFYAMGWYRQAPGKERELVAAISRGGTTNYADSVKGRFTISRDNAKNTVYLQMNSLKPEDTAVYYCAASYFRRGFYSIYEYDYWGQGTQVTVSS | low polyreactivity
QVQLVESGGGLVQAGGSLRLSCAASGRTFSGYAKGGYRQAPGKERELVAAITSSGSSTYYADSVKGRFTISRDNAKNTVYLQMNSLKPEDTAVYYCAATPQAHSERYYYQRKYDYWGQGTQVTVSS | low polyreactivity
QVQLVESGGGLVQAGGSLRLSCAASGRTFSGYAMGGDIQAPGKERELVAAITARSGSTYYADSVKGRFTISRDNAKNTVYLLMNSLKPEDTAVYYCNAPRYAARFDYWGQGTQVTVSS | high polyreactivity

Sequence | polyreactivity (PSR sort gate)
QVQLVESGGGLVQAGGSLRLSCAASGRTFSGYAMGWYRPAPGKERELVATISSGGRTNYADSVKGRFTISRDNAKNTVYLQMISLKPEDTAVYYCNVRWWGRGPWSDYWGQGTQVTVSS | high polyreactivity
QVQLVESGGGLVQAGGSLRLSCAASGRTFSGYAMGWYRQAPGKERELVAAIRGGSTNYADSVKGRFTISRDNAKNTVYLQMNSLKPEDTAVYYCNAKRSWVWAGYDYWGQGTQVTVSS | high polyreactivity
QVQLVESGGGLVQAGGSLRLSCAASGRTFSGYAMGWYRQAPGKERELVAAISNSGGNTYYADSVKGRFTISRDNAKNTVYLQMNSLKAEDTAVYYSAVDSSSPYDYWGQGTQVTVSS | high polyreactivity
QVQLVESGGGLVQAGGSLRLSCAASGRTFSGYAMGWYRQAPGKERELVAAISSGGGSTYYADSVKGRFTISRDNAKNTVYLQMNSLKPEDTAVYYCAADGYPGDYDYWRQGTQVTVSS | low polyreactivity
QVQLVESGGGLVQAGGSLRLSCAASGRTFSGYAMGWYRQATGKERELVAAITRRGGTTYYADSVKGRFTISRDNAKNTVYLQMNSLKPEDTAVYYCAAAKPRVISQNIIYDYWGQGTQVTVSS | high polyreactivity
QVQLVESGGGLVQAGGSLRLSCAASGRTFSGYVMGWYRQAPGKERELVATINGSGASTYYADSVKGRFTISRDNAKNTVYLQMNSLKPEDTAVYYCNKYPAHYQTRRYDYWGQGTQVTVSS | high polyreactivity
QVQLVESGGGLVQAGGSLRLSCAASGRTFSIYAMGWYRQAPGKERELVAAISNGGRTKYADSVKGRFTISRDNAKNTVYLQMNSLKPEDTAVYYCNALAYNVPRYDYWGQGTQVTVSS | high polyreactivity
QVQLVESGGGLVQAGGSLRLSCAASGRTFSIYAMGWYRQAPVKERELVAAISNGGRTKYADSVKGRFTISRDNAKNTVSLQMNSLKPEDTAVYYCAKRTYSRKFRGAYNYWGQGTQVTVSS | high polyreactivity
QVQLVESGGGLVQAGGSLRLSCAASGRTFSKYAMGWYRQAPGKERELVASISSDGRTYYADSVKGRFTISRDNAKNTVYLQMNRLKPEDTAVYYCAAKEWYFPTWYTYYERDYWGQGTQVTVSS | high polyreactivity
QVQLVESGGGLVQAGGSLRLSCAASGRTFSKYTMGWYRQATGKERELVAVISRSGTRTYYADSVKGRFTISRDNAKNTVYLQMNSLKREDTAVYYCAAKDERRSFGMGYWGQGTQVTVSS | high polyreactivity
QVQLVESGGGLVQAGGSLRLSCAASGRTFSLYAMGWYRQAPGKERELVAGIDWSGGSTYYADSVKGRFTISRDNAKNTVYLQMNSLKPEDTAVYYCAAKYVWVSKASKDYDYWGQGTQVTVSS | low polyreactivity
QVQLVESGGGLVQAGGSLRLSCAASGRTFSNNVMGWYRQAPGKERELVAAISGRGGRTYYADSVKGRFTISRDNAKNTVYLQMNSLKPEDTAVYYCAAGAYWPDEYWGQGTQVSVSS | high polyreactivity
QVQLVESGGGLVQAGGSLRLSCAASGRTFSNYAMGWYRQAPGKERELVAAITGSGGSTYYADSVKGRFTISRDNAKNTVYLQLISLKPEDTAVYYCNAYRASKYLTGNGHDYWGQGTQVTVSS | low polyreactivity
QVQLVESGGGLVQAGGSLRLSCAASGRTFSNYAMGWYRQAPGKERELVAAITGSGGSTYYADSVKGRFTISRDNAKNTVYLQMHSLKPEDTAVYYCNAYRASKYLTGNGHDYWGQGTQVTVSS | low polyreactivity
QVQLVESGGGLVQAGGSLRLSCAASGRTFSPYALGWSRKAPGKERELVAAITSRGSNTFYADSVKGRFTISRDNAKNTVYLQMNSLKPEDTAVYYCNKYTIVSRYDYWGQGTQVTVSS | high polyreactivity
QVQLVESGGGLVQAGGSLRLSCAASGRTFSPYAMGWYRQAPGKERELVAAISWIGGSTYYADSVKGRFTISRDNAKNTVYLQMNSLKPEDTAVYYCAADKSVFSDSHAVSMIYRYDYWGQGTQVTVSS | low polyreactivity
QVQLVESGGGLVQAGGSLRLSCAASGRTFSPYAMGWYRQAPGKERELVAAITSRGASTYYADSVKGRFTISRDNAKNTVYLQINSLKPEDTAVYYCNSGRTYRRLGDYWGQGTQVTVSS | high polyreactivity
QVQLVESGGGLVQAGGSLRLSCAASGRTFSQYAMGWYRQAPGKERELVAAISRGGGSTYYADSVKGRFTISRDNAKNTVYLQMNSLKPEDTAVYYCARATYFYYPFGSWGQGTQVTVSS | high polyreactivity
QVQLVESGGGLVQAGGSLRLSCAASGRTFSRNAMGWYRQAPGKEREFVASISRSGTSTYYADSVKGRFTISRDNAKNTVYLHMNSLKPEDTAVYYCAKTYASSQGYDYWGLGTQVTVSS | high polyreactivity
QVQLVESGGGLVQAGGSLRLSCAASGRTFSRNAMGWYRQAPGKEREFVASISRSGTSTYYADSVKGRFTISRDNAKNTVYLQMNSLKPEDTAVYYCAKTYASSQGYDYWGQGTQVTVSS | high polyreactivity
QVQLVESGGGLVQAGGSLRLSCAASGRTFSRNAMGWYRQAPGKERELVAAITYSGGTTYYADSVKGRFTISRDNAKNTVYLQMNSLKPEDTAVYYCATPSRKSGVGYPSYNYWGQGTQVTVSS | high polyreactivity
